From patent publication US20210079074A1

target: recombinant MS4A4A soluble polypeptide JS5; assay: ELISA, 0.4 ug/ml antibody; details: not given

Row | Binder | OD450
1 | anti-MS4A4A antibody 4A-357 (antibody, V domains shown) VH: QVQLVQSGSELKKPGASVKVSCKASGYIFTSYGLSWVRQAPGQGLEWMGWINTYSGVPTYAQGFTGRFVFSLDTSVSTAYLQISSLKAEDTAVYYCARTLADYWGQGTLVTVSS VL: DVVMTQSPLSLPVTLGQPASISCKSSQSLLYSDGKTYLSWFQQRPGQSPRRLIYEVSKLDSGVPDRFSGSGSGTDFTLKISRVEAEDVGVYYCWQGIDFHQTFGGGTKVEIK | 0.892
2 | anti-MS4A4A antibody 4A-364 (antibody, V domains shown) VH: QVQLVQSGSELKKPGASVKVSCKASGYTFTSYGLSWIRQAPGQGLEWMGWINTYSGVPTYAQGFTGRFVFSLDTSVSTAYLQISSLKAEDTAVYYCARTMVDYWGQGTLVTVSS VL: DVVMTQSPLSLPVTLGQPASISCKASQSLLYSDGKTYLSWFQQRPGQSPRRLIYLVSKLDSGVPDRFSGSGSGADFTLKISRVEAEDVGVYYCWQGIDFHQTFGGGTKVEIK | 0.959
3 | anti-MS4A4A antibody 4A-361 (antibody, V domains shown) VH: QVQLVQSGSELKKPGASVKVSCKASGYIFTSYGLSWVRQAPGQGLEWMGWINTYSGVPTYAQGFTGRFVFSLDTSVSTAYLQISSLKAEDTAVYYCARTLADYWGQGTLVTVSS VL: DVVMTQSPLSLPVTLGQPASISCKSSQSLLYSDGKTYLSWFQQRPGQSPRRLIYLVSKLESGVPDRFSGSGSGTDFTLKISRVEAEDVGVYYCWQGIDFHQTFGGGTKVEIK | 0.79
4 | anti-MS4A4A antibody 4A-359 (antibody, V domains shown) VH: QVQLVQSGSELKKPGASVKVSCKASGYIFTSYGLSWVRQAPGQGLEWMGWINTYSGVPTYAQGFTGRFVFSLDTSVSTAYLQISSLKAEDTAVYYCARTLADYWGQGTLVTVSS VL: DVVMTQSPLSLPVTLGQPASISCKASQSLLYSDGKTYLSWFQQRPGQSPRRLIYLVSKLDSGVPDRFSGSGSGADFTLKISRVEAEDVGVYYCWQGIDFHQTFGGGTKVEIK | 0.892
5 | anti-MS4A4A antibody 4A-363 (antibody, V domains shown) VH: QVQLVQSGSELKKPGASVKVSCKASGYIFTSYGLSWVRQAPGQGLEWMGWINTYSGVPTYAQGFTGRFVFSLDTSVSTAYLQISSLKAEDTAVYYCARTLADYWGQGTLVTVSS VL: DVVMTQSPLSLPVTLGQPASISCKSSQSLLYSDGKTYLSWFQQRPGQSPRRLIYLVSKLSSGVPDRFSGSGSGTDFTLKISRVEAEDVGVYYCWQGIDFHQTFGGGTKVEIK | 0.833

Second part, the binder after the results:

Row | OD450 | Binder
6 | 0.873 | anti-MS4A4A antibody 4A-372 (antibody, V domains shown) VH: QVQLVQSGSELKKPGASVKVSCKASGYIFTSYGLSWVRQAPGQGLEWMGWINTYSGVPTYAQGFTGRFVFSLDTSVSTAYLQISSLKAEDTAVYYCARTLGDYWGQGTLVTVSS VL: DVVMTQSPLSLPVTLGQPASISCKSSQSLLYSDGKTYLSWFQQRPGQSPRRLIYLVSRLDSGVPDRFSGSGSGTDFTLKISRVEAEDVGVYYCWQGIDFHQTFGGGTKVEIK
7 | 0.845 | anti-MS4A4A antibody 4A-365 (antibody, V domains shown) VH: QVQLVQSGSELKKPGASVKVSCKASGYTFTSYGLSWIRQAPGQGLEWMGWINTYSGVPTYAQGFTGRFVFSLDTSVSTAYLQISSLKAEDTAVYYCARTMVDYWGQGTLVTVSS VL: DVVMTQSPLSLPVTLGQPASISCKSSQSLLYSDGKTYLSWFQQRPGQSPRRLIYLVSKLSSGVPDRFSGSGSGTDFTLKISRVEAEDVGVYYCWQGIDFHQTFGGGTKVEIK
8 | 0.955 | anti-MS4A4A antibody 4A-371 (antibody, V domains shown) VH: QVQLVQSGSELKKPGASVKVSCKASGYIFTSYGLSWVRQAPGQGLEWMGWINTYSGVPTYAQGFTGRFVFSLDTSVSTAYLQISSLKAEDTAVYYCARTLGDYWGQGTLVTVSS VL: DVVMTQSPLSLPVTLGQPASISCKSSQSLLYSDGKTYLSWFQQRPGQSPRRLIYLVSKLDSGVPDRFSGSGSGTDFTLKISRVEAEDVGVYYCWQGIDFHQTFGGGTKVEIK
9 | 0.901 | anti-MS4A4A antibody 4A-368 (antibody, V domains shown) VH: QVQLVQSGSELKKPGASVKVSCKASGYTFTSYGLSWIRQAPGQGLEWMGWINTYSGVPTYAQGFTGRFVFSLDTSVSTAYLQISSLKAEDTAVYYCARTMVDYWGQGTLVTVSS VL: DVVMTQSPLSLPVTLGQPASISCKSSQSLLYSDGKTYLSWFQQRPGQSPRRLIYLVSKLESGVPDRFSGSGSGTDFTLKISRVEAEDVGVYYCWQGIDFHQTFGGGTKVEIK
10 | 0.961 | anti-MS4A4A antibody 4A-367 (antibody, V domains shown) VH: QVQLVQSGSELKKPGASVKVSCKASGYTFTSYGLSWIRQAPGQGLEWMGWINTYSGVPTYAQGFTGRFVFSLDTSVSTAYLQISSLKAEDTAVYYCARTMVDYWGQGTLVTVSS VL: DVVMTQSPLSLPVTLGQPASISCKSSQSLLYSDGKTYLSWFQQRPGQSPRRLIYLVSKLDSGVPDRFSGSGSGTDFTLKISRVEAEDVGVYYCWQGIDFHQTFGGGTKVEIK
11 | 0.996 | anti-MS4A4A antibody 4A-375 (antibody, V domains shown) VH: QVQLVQSGSELKKPGASVKVSCKASGYIFTSYGLSWVRQAPGQGLEWMGWINTYSGVPTYAQGFTGRFVFSLDTSVSTAYLQISSLKAEDTAVYYCARSLADYWGQGTLVTVSS VL: DVVMTQSPLSLPVTLGQPASISCKSSRSLLYSDGKTYLSWFQQRPGQSPRRLIYLVSKLDSGVPDRFSGSGSGTDFTLKISRVEAEDVGVYYCWQGIDFHQTFGGGTKVEIK
12 | 0.875 | anti-MS4A4A antibody 4A-366 (antibody, V domains shown) VH: QVQLVQSGSELKKPGASVKVSCKASGYTFTSYGLSWIRQAPGQGLEWMGWINTYSGVPTYAQGFTGRFVFSLDTSVSTAYLQISSLKAEDTAVYYCARTMVDYWGQGTLVTVSS VL: DVVMTQSPLSLPVTLGQPASISCKSSRSLLYSDGKTYLSWFQQRPGQSPRRLIYLVSKLDSGVPDRFSGSGSGTDFTLKISRVEAEDVGVYYCWQGIDFHQTFGGGTKVEIK
13 | 0.833 | anti-MS4A4A antibody 4A-374 (antibody, V domains shown) VH: QVQLVQSGSELKKPGASVKVSCKASGYIFTSYGLSWVRQAPGQGLEWMGWINTYSGVPTYAQGFAGRFVFSLDTSVSTAYLQISSLKAEDTAVYYCARTLVDYWGQGTLVTVSS VL: DVVMTQSPLSLPVTLGQPASISCKSSRSLLYSDGKTYLSWFQQRPGQSPRRLIYLVSKLDSGVPDRFSGSGSGTDFTLKISRVEAEDVGVYYCWQGIDFHQTFGGGTKVEIK
14 | 0.822 | anti-MS4A4A antibody 4A-370 (antibody, V domains shown) VH: QVQLVQSGSELKKPGASVKVSCKASGYIFTSYGLSWVRQAPGQGLEWMGWINTYSGVPTYAQGFTGRFVFSLDTSVSTAYLQISSLKAEDTAVYYCARTLGDYWGQGTLVTVSS VL: DVVMTQSPLSLPVTLGQPASISCKSGQSLLYSDGKTYLSWFQQRPGQSPRRLIYLVSRLDSGVPDRFSGSGSGTDFTLKISRVEAEDVGVYYCWQGIDFHQTFGGGTKVEIK

target: human MS4A4A (human), Q96JQ5; assay: FACS, U937-huMS4A4A, 5 ug/ml; details: remark: other sources report otherwise

Row | MFI | Binder
15 | 670 | anti-MS4A4A antibody 4A-21 (antibody, V domains shown) VH: QIQLVQSGPELKKPGETVKISCKASGYIFTSYGLSWVKQTPGKGLKWMGWINTYSGVPTYANDFKGRFAFSLETSASTTYLRINNLKNDDTATYFCARSLVDYWGQGTPLTVSS VL: not shown

target: human MS4A4A (human), Q96JQ5; assay: FACS, U937-huMS4A4A, 5 ug/ml; details: remark: other sources report otherwise; remark: another data set of the same source

Row | MFI | Binder
16 | 18800 | anti-MS4A4A antibody 4A-21 (antibody, V domains shown) VH: QIQLVQSGPELKKPGETVKISCKASGYIFTSYGLSWVKQTPGKGLKWMGWINTYSGVPTYANDFKGRFAFSLETSASTTYLRINNLKNDDTATYFCARSLVDYWGQGTPLTVSS VL: not shown
